Measured values as given in patent US20250101074A1 (Affibody, published 2025).

Assays:
Assay in all cases: SPR (Biacore), PEP07843 immobilized, analyte protein injected
[1] = biological target: hIL-1beta (human, UniProt P01584 117-269)
Method: (§1) In the binding experiment, HBS-EP was used as running buffer and the flow rate was 30 μl/min. […] The analytes, i.e. the panels of 24 or 12 different proteins, were each diluted in HBS-EP or HBS-EP supplemented with 500 mM NaCl to final concentrations of from 0.4 to 250 nM and injected for 5 min. […] The results were analyzed using the BiaEvaluation software.
(§2) The Z-ABD-Z polypeptides were injected over surfaces containing HSA followed by injection of the analyte proteins.

[2] = biological target: T1, Haptoglobin Human (seems to be beta chain) (human, UniProt P00738 162-406, limits assumed)
T1 sequence (looked up): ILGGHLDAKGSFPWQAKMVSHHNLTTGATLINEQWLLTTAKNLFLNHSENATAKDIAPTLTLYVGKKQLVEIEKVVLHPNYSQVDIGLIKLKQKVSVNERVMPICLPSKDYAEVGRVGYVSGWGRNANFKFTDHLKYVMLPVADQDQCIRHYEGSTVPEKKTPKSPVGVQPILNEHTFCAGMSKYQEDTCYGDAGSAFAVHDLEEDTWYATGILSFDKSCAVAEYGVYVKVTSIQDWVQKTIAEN
Method: as §1, §2

[3] = biological target: T2, IL-17RA (UniProt Q96F46 33-320)
T2 sequence (looked up): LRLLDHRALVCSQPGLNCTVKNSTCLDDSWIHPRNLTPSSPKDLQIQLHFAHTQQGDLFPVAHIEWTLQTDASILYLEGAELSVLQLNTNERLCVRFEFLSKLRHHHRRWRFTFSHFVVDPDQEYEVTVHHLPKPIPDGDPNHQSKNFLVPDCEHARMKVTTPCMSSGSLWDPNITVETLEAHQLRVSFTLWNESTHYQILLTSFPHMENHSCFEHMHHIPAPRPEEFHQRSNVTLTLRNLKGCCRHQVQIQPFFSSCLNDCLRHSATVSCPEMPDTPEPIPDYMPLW
Method: as §1, §2

[4] = biological target: Transthyretin/TTR/Prealbumin/PALB Protein (UniProt P02766 21-147)
Method: as §1, §2

[5] = biological target: holo-Transferrin (UniProt P02787 20-698)
Method: as §1, §2

[6] = biological target: T3, Human Hemopexin/HPX Protein (human, UniProt P02790 24-462)
T3 sequence (looked up): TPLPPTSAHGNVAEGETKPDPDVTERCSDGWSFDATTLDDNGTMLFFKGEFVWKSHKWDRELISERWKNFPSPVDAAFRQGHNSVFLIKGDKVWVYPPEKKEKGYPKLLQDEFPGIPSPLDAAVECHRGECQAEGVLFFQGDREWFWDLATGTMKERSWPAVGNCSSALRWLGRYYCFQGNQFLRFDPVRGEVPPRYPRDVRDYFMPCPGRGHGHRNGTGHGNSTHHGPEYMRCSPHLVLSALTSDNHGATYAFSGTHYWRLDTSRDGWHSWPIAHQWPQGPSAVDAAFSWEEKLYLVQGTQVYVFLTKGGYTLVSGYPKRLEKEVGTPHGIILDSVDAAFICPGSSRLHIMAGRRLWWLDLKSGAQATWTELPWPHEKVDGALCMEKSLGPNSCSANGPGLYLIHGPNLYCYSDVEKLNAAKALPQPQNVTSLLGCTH
Method: as §1, §2

[7] = biological target: T4, hIL-17E (human, UniProt Q9H293 33-177)
T4 sequence (looked up): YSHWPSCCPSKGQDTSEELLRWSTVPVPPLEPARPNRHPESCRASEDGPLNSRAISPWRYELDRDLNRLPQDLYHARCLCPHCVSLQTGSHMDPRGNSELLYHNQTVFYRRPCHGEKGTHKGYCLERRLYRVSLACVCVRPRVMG
Method: as §1, §2

[8] = biological target: T5, human IL-17A (human, UniProt Q16552 20-155)
T5 construct: Peprotech cat. no; 200-17; homodimeric cytokine; biotinylated with Sulfo-NHS-LC-Biotin for the ELISAs; also called hIL-17A; rhIL-17A
T5 sequence: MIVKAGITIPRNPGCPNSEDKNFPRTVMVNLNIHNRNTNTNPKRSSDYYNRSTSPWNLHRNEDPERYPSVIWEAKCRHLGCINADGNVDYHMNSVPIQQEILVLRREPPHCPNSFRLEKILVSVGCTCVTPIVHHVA
Method: as §1, §2

[9] = biological target: hIL-6 (human, UniProt P05231 29-212)
Method: as §1, §2

[10] = biological target: T6, Alpha-2-HS-glycoprotein (AHSG Human HEK) (human, UniProt P02765 19-367, limits assumed)
T6 sequence (looked up): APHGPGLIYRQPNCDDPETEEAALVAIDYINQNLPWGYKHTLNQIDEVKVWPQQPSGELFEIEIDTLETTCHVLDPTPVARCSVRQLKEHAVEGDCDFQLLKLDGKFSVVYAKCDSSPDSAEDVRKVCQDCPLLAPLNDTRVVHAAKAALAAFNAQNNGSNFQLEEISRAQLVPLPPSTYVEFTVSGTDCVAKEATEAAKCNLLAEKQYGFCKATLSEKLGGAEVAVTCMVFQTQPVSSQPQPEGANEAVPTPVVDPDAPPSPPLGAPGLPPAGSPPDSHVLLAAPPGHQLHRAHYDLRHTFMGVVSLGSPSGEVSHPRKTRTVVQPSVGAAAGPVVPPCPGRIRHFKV
Method: as §1, §2

Chain of holo-Transferrin (P02787 20-698 limits assumed): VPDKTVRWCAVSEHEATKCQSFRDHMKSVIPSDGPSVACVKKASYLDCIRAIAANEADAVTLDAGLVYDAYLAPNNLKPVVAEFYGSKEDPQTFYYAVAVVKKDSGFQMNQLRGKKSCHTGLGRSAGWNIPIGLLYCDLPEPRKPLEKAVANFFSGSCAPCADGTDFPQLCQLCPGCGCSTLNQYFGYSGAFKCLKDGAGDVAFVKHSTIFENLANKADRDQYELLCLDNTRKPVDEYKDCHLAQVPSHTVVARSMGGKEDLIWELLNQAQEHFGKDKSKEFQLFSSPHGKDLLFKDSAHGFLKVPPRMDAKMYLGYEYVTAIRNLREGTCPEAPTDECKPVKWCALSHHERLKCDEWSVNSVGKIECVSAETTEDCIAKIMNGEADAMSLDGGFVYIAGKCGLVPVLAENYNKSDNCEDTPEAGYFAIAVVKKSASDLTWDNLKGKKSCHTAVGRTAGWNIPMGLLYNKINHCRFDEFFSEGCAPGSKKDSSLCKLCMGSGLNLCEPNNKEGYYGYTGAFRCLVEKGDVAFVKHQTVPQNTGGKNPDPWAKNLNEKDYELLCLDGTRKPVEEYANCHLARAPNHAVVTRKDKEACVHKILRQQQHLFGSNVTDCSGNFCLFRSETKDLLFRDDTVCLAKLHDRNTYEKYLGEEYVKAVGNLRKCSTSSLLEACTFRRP

GSSLAEAKEAANAELDSYGVSDFYKRLIDKAKTVEGVEALKDAILAALP (designed binder) [ABD variant PEP07843]
binding result [1]: no binding (tested: 50, 250 nM) | binding result [2]: no binding (tested: 50, 250 nM) | binding result [3]: no binding (tested: 50, 250 nM) | binding result [4]: no binding (tested: 50, 250 nM) | binding result [5]: no binding (tested: 50, 250 nM) | binding result [6]: no binding (tested: 50, 250 nM) | binding result [7]: no binding (tested: 50, 250 nM) | binding result [8]: no binding (tested: 2, 10, 50 nM) | binding result [9]: no binding (tested: 50, 250 nM) | binding result [10]: no binding (tested: 50, 250 nM)
